According to patent US20050164920A1 (Pfizer, published 2005):
One block for each binder: values may come before it. Positions of bridges follow the written chain, without caps; N, C: chain ends.

Biological target: TrkB receptor on rat cerebellar neurons (rat, UniProt Q63604 32-821)
Experiment: cell-based or functional assay

Chain of TrkB receptor on rat cerebellar neurons (Q63604 32-821): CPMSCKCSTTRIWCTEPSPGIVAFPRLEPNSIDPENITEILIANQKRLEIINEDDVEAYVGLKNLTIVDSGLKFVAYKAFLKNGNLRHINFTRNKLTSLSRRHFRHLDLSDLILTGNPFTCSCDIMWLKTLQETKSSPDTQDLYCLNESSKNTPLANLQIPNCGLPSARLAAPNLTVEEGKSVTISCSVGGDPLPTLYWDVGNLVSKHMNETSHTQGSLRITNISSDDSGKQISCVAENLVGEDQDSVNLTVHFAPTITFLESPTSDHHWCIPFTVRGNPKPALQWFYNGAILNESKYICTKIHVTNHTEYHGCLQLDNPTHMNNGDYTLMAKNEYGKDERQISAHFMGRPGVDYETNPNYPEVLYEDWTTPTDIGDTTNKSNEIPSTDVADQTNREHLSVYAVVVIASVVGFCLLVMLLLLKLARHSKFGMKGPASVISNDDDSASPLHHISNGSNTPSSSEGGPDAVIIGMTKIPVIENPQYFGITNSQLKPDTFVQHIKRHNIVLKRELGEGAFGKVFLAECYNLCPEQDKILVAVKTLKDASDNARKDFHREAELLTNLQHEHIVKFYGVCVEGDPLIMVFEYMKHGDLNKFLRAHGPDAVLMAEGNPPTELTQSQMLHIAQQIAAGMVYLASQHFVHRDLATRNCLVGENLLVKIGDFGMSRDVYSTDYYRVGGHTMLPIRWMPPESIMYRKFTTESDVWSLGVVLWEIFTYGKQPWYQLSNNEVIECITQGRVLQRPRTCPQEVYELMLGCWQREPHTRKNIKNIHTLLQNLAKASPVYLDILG

- neurite outgrowth of rat cerebellar neurons, concentration of maximal response: 1 to 10 ng/mL
B1: neurotrophin-4 (NT-4/5), recombinant human (ligand)
chain: GVSETAPASRRGELAVCDAVSGWVTDRRTAVDLRGREVEVLGEVPAAGGSPLRQYFFETRCKADNAEEGGPGAGGGGCRGVDRRHWVSECKAKQSYVRALTADAQGRVGWRWIRIDTACVCTLLSRTGRA

- EC50 of stimulation of neurite outgrowth: ~0.3 µM
B2: N-Ac-…-NH2 (peptide)
peptide: Ac-CSRRGELAASRRGELC-NH2
modifications: disulfide 1-16
SMILES: CC(=O)N[C@H]1CSSC[C@@H](C(N)=O)NC(=O)[C@H](CC(C)C)NC(=O)[C@H](CCC(=O)O)NC(=O)CNC(=O)[C@H](CCCNC(=N)N)NC(=O)[C@H](CCCNC(=N)N)NC(=O)[C@H](CO)NC(=O)[C@H](C)NC(=O)[C@H](C)NC(=O)[C@H](CC(C)C)NC(=O)[C@H](CCC(=O)O)NC(=O)CNC(=O)[C@H](CCCNC(=N)N)NC(=O)[C@H](CCCNC(=N)N)NC(=O)[C@H](CO)NC1=O

- increase of neurite length against control culture, BDNF at 5 ng/ml: 60 to 70%
- neurite outgrowth of rat cerebellar neurons, concentration of maximal response: 1 to 10 ng/mL
B3: brain-derived neurotrophic factor (BDNF), recombinant human (ligand)
chain: HSDPARRGELSVCDSISEWVTAADKKTAVDMSGGTVTVLEKVPVSKGQLKQYFYETKCNPMGYTKEGCRGIDKRHWNSQCRTTQSYVRALTMDSKKRIGWRFIRIDTSCVCTLTIKRGR

- inhibition of the BDNF response, fold against the NGF and NT-3 derived peptides: ~5 fold
B4: N-Ac-CSRRGEC-NH2 (peptide)
peptide: Ac-CSRRGEC-NH2
modifications: disulfide 1-7
SMILES: CC(=O)N[C@H]1CSSC[C@@H](C(N)=O)NC(=O)[C@H](CCC(=O)O)NC(=O)CNC(=O)[C@H](CCCNC(=N)N)NC(=O)[C@H](CCCNC(=N)N)NC(=O)[C@H](CO)NC1=O
